# In patent publication US20180340025A1 (Novartis, published 2018):
# T1: human LAG-3 expressed on cells (human, UniProt P18627 23-525)
# T1 construct: whole, on cells; Treated as one protein; the host cell is named under assay; also called LAG-3-expressing CHO cells; LAG-3-transfected CHO cells
# T1 sequence (looked up): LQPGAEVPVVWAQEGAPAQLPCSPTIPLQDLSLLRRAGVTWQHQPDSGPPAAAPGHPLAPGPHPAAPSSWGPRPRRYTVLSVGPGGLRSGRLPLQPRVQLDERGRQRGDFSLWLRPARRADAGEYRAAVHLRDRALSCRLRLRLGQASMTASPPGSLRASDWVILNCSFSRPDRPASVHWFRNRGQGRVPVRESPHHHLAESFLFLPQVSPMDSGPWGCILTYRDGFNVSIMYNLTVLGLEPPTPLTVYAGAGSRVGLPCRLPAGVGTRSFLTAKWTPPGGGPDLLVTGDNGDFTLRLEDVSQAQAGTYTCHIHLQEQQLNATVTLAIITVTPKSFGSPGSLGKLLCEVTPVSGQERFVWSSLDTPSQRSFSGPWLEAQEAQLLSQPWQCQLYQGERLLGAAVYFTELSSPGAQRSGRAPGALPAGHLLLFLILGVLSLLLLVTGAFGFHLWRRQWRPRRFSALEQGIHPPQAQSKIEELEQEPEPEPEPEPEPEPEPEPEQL
# Legend:
# [1] = target: T1, human LAG-3 expressed on cells; assay: FACS competition: serial dilutions of the test mAb against a constant concentration of FITC-labeled murine BAP050 on LAG-3-expressing CHO cells; MFI of bound labelled mAb
# [2] = target: T1, human LAG-3 expressed on cells; assay: rank of the clone among the humanized clones by the FACS binding data on LAG-3-expressing cells
# [3] = target: T1, human LAG-3 expressed on cells; assay: rank of the clone by the competition binding data (test mAb against FITC-labeled murine BAP050 on LAG-3-expressing CHO cells), curve position relative to the chimeric mAb in two experiments
# Method: Incubations with the mAb mixtures having different concentration ratios of test mAb to labeled mAb was at 4° C. for 30 min. […] The experiment was performed twice.
# Such a ranking system was used in FIG. 6.
binding result [1],"Ranking, Binding data [2]","Ranking, Compet. data [3]",Binder
binds,,,"BAP050-hum02-Ser (antibody, human IgG4 S228P, kappa, V domains shown, C84S in VHFW3 of BAP050-hum02; IgG4(S228P)/kappa; also called clone No. 2S; huBAP050(Ser) clone) VH: EVQLVQSGAEVKKPGATVKISCKVSGFTLTNYGMNWVRQAPGQGLEWMGWINTDTGEPTYADDFKGRFVFSLDTSVSTAYLQISSLKAEDTAVYYCARNPPYYYGTNNAEAMDYWGQGTTVTVSS VL: DIQMTQSPSSLSASVGDRVTITCSSSQDISNYLNWYQQKPGKAPKLLIYYTSTLHLGIPPRFSGSGYGTDFTLTINNIESEDAAYYFCQQYYNLPWTFGQGTKVEIKR"
,9,> 3,"BAP050-hum14 (antibody, human IgG4 S228P, kappa, V domains shown, humanized IgG4(S228P)/kappa, transient CHO supernatant) VH: EVQLVQSGAEVKKPGATVKISCKVSGFTLTNYGMNWIRQSPSRGLEWLGWINTDTGEPTYADDFKGRFVFSLDTSVSTAYLQICSLKAEDTAVYYCARNPPYYYGTNNAEAMDYWGQGTTVTVSS VL: EIVLTQSPATLPVTLGQPASISCSSSQDISNYLNWYQQKPGQAPRLLIYYTSTLHLGVPSRFSGSGSGTDFTFTISSLEAEDAATYYCQQYYNLPWTFGQGTKVEIKR"
,9,> 3,"BAP050-hum17 (antibody, human IgG4 S228P, kappa, V domains shown, humanized IgG4(S228P)/kappa, transient CHO supernatant) VH: QVQLVQSGSELKKPGASVKVSCKASGFTLTNYGMNWVRQAPGQGLEWMGWINTDTGEPTYADDFKGRFVFSLDTSVSTAYLQISTLKAEDTATYFCARNPPYYYGTNNAEAMDYWGQGTTVTVSS VL: DIQMTQSPSSLSASVGDRVTITCSSSQDISNYLNWYQQKPGKAPKLLIYYTSTLHLGVPSRFSGSGSGTDFTFTISSLQPEDIATYYCQQYYNLPWTFGQGTKVEIKR"
,9,2,"BAP050-hum10 (antibody, human IgG4 S228P, kappa, V domains shown, humanized IgG4(S228P)/kappa, transient CHO supernatant) VH: QVQLVQSGAEVKKPGASVKVSCKASGFTLTNYGMNWVRQARGQRLEWIGWINTDTGEPTYADDFKGRFVFSLDTSVSTAYLQICSLKAEDTAVYYCARNPPYYYGTNNAEAMDYWGQGTTVTVSS VL: EIVLTQSPATLPVTLGQPASISCSSSQDISNYLNWYQQKPGQAPRLLIYYTSTLHLGVPSRFSGSGSGTDFTFTISSLEAEDAATYYCQQYYNLPWTFGQGTKVEIKR"
,9,3,"BAP050-hum13 (antibody, human IgG4 S228P, kappa, V domains shown, humanized IgG4(S228P)/kappa, transient CHO supernatant; also called humanized clone No. 13) VH: QVQLVQSGAEVKKPGASVKVSCKASGFTLTNYGMNWVRQAPGQGLEWMGWINTDTGEPTYADDFKGRFVFSLDTSVSTAYLQICSLKAEDTAVYYCARNPPYYYGTNNAEAMDYWGQGTTVTVSS VL: DIQMTQSPSSLSASVGDRVTITCSSSQDISNYLNWYQQKPGKAPKLLIYYTSTLHLGIPPRFSGSGYGTDFTLTINNIESEDAAYYFCQQYYNLPWTFGQGTKVEIKR"
,20,20,"BAP050-hum15 (antibody, human IgG4 S228P, kappa, V domains shown, humanized IgG4(S228P)/kappa, transient CHO supernatant) VH: EVQLVQSGAEVKKPGATVKISCKVSGFTLTNYGMNWIRQSPSRGLEWLGWINTDTGEPTYADDFKGRFVFSLDTSVSTAYLQICSLKAEDTAVYYCARNPPYYYGTNNAEAMDYWGQGTTVTVSS VL: EIVLTQSPDFQSVTPKEKVTITCSSSQDISNYLNWYQQKPGQAPRLLIYYTSTLHLGVPSRFSGSGSGTDFTLTISSLQPEDFATYYCQQYYNLPWTFGQGTKVEIKR"
binds,,,"BAP050-hum12-Ser (antibody, human IgG4 S228P, kappa, V domains shown, C84S in VHFW3 of BAP050-hum12; IgG4(S228P)/kappa; also called huBAP050(Ser) clone) VH: QVQLVQSGAEVKKPGASVKVSCKASGFTLTNYGMNWVRQARGQRLEWIGWINTDTGEPTYADDFKGRFVFSLDTSVSTAYLQISSLKAEDTAVYYCARNPPYYYGTNNAEAMDYWGQGTTVTVSS VL: EIVLTQSPDFQSVTPKEKVTITCSSSQDISNYLNWYQQKPGQAPRLLIYYTSTLHLGVPSRFSGSGSGTDFTLTISSLQPEDFATYYCQQYYNLPWTFGQGTKVEIKR"
binds,,,"BAP050-hum11-Ser (antibody, human IgG4 S228P, kappa, V domains shown, C84S in VHFW3 of BAP050-hum11; IgG4(S228P)/kappa; also called clone No. 11S) VH: QVQLVQSGAEVKKPGASVKVSCKASGFTLTNYGMNWVRQARGQRLEWIGWINTDTGEPTYADDFKGRFVFSLDTSVSTAYLQISSLKAEDTAVYYCARNPPYYYGTNNAEAMDYWGQGTTVTVSS VL: DIQMTQSPSSLSASVGDRVTITCSSSQDISNYLNWYLQKPGQSPQLLIYYTSTLHLGVPSRFSGSGSGTEFTLTISSLQPDDFATYYCQQYYNLPWTFGQGTKVEIKR"
,3,2,"BAP050-hum12 (antibody, human IgG4 S228P, kappa, V domains shown, humanized IgG4(S228P)/kappa, transient CHO supernatant; also called humanized clone No. 12) VH: QVQLVQSGAEVKKPGASVKVSCKASGFTLTNYGMNWVRQARGQRLEWIGWINTDTGEPTYADDFKGRFVFSLDTSVSTAYLQICSLKAEDTAVYYCARNPPYYYGTNNAEAMDYWGQGTTVTVSS VL: EIVLTQSPDFQSVTPKEKVTITCSSSQDISNYLNWYQQKPGQAPRLLIYYTSTLHLGVPSRFSGSGSGTDFTLTISSLQPEDFATYYCQQYYNLPWTFGQGTKVEIKR"
,2,2,"BAP050-hum11 (antibody, human IgG4 S228P, kappa, V domains shown, humanized IgG4(S228P)/kappa, transient CHO supernatant; also called humanized clone No. 11) VH: QVQLVQSGAEVKKPGASVKVSCKASGFTLTNYGMNWVRQARGQRLEWIGWINTDTGEPTYADDFKGRFVFSLDTSVSTAYLQICSLKAEDTAVYYCARNPPYYYGTNNAEAMDYWGQGTTVTVSS VL: DIQMTQSPSSLSASVGDRVTITCSSSQDISNYLNWYLQKPGQSPQLLIYYTSTLHLGVPSRFSGSGSGTEFTLTISSLQPDDFATYYCQQYYNLPWTFGQGTKVEIKR"
,8,2,"BAP050-hum09 (antibody, human IgG4 S228P, kappa, V domains shown, humanized IgG4(S228P)/kappa, transient CHO supernatant; also called humanized clone No. 09) VH: QVQLVQSGAEVKKPGASVKVSCKASGFTLTNYGMNWVRQARGQRLEWIGWINTDTGEPTYADDFKGRFVFSLDTSVSTAYLQICSLKAEDTAVYYCARNPPYYYGTNNAEAMDYWGQGTTVTVSS VL: DIQMTQSPSSLSASVGDRVTITCSSSQDISNYLNWYQQKPGKAPKLLIYYTSTLHLGIPPRFSGSGYGTDFTLTINNIESEDAAYYFCQQYYNLPWTFGQGTKVEIKR"
binds,,,"BAP050-hum13-Ser (antibody, human IgG4 S228P, kappa, V domains shown, C84S in VHFW3 of BAP050-hum13; IgG4(S228P)/kappa; also called clone No. 13S (printed 135); huBAP050(Ser) clone) VH: QVQLVQSGAEVKKPGASVKVSCKASGFTLTNYGMNWVRQAPGQGLEWMGWINTDTGEPTYADDFKGRFVFSLDTSVSTAYLQISSLKAEDTAVYYCARNPPYYYGTNNAEAMDYWGQGTTVTVSS VL: DIQMTQSPSSLSASVGDRVTITCSSSQDISNYLNWYQQKPGKAPKLLIYYTSTLHLGIPPRFSGSGYGTDFTLTINNIESEDAAYYFCQQYYNLPWTFGQGTKVEIKR"
binds,,,"BAP050-hum09-Ser (antibody, human IgG4 S228P, kappa, V domains shown, C84S in VHFW3 of BAP050-hum09; IgG4(S228P)/kappa; also called clone No. 9S; huBAP050(Ser) clone) VH: QVQLVQSGAEVKKPGASVKVSCKASGFTLTNYGMNWVRQARGQRLEWIGWINTDTGEPTYADDFKGRFVFSLDTSVSTAYLQISSLKAEDTAVYYCARNPPYYYGTNNAEAMDYWGQGTTVTVSS VL: DIQMTQSPSSLSASVGDRVTITCSSSQDISNYLNWYQQKPGKAPKLLIYYTSTLHLGIPPRFSGSGYGTDFTLTINNIESEDAAYYFCQQYYNLPWTFGQGTKVEIKR"
binds,,,"BAP050-hum05-Ser (antibody, human IgG4 S228P, kappa, C84S in VHFW3 of BAP050-hum05; IgG4(S228P)/kappa; also called clone No. 5S; huBAP050(Ser) clone) heavy: not shown light: EIVLTQSPATLSLSPGERATLSCSSSQDISNYLNWYQQKPGKAPKLLIYYTSTLHLGVPSRFSGSGSGTDFTFTISSLEAEDAATYYCQQYYNLPWTFGQGTKVEIKRTVAAPSVFIFPPSDEQLKSGTASVVCLLNNFYPREAKVQWKVDNALQSGNSQESVTEQDSKDSTYSLSSTLTLSKADYEKHKVYACEVTHQGLSSPVTKSFNRGEC"
,4,> 3,"BAP050-hum08 (antibody, human IgG4 S228P, kappa, humanized IgG4(S228P)/kappa, transient CHO supernatant) heavy: not shown light: EIVLTQSPDFQSVTPKEKVTITCSSSQDISNYLNWYQQKPGQAPRLLIYYTSTLHLGVPSRFSGSGSGTDFTLTISSLQPEDFATYYCQQYYNLPWTFGQGTKVEIKRTVAAPSVFIFPPSDEQLKSGTASVVCLLNNFYPREAKVQWKVDNALQSGNSQESVTEQDSKDSTYSLSSTLTLSKADYEKHKVYACEVTHQGLSSPVTKSFNRGEC"
,20,20,"BAP050-hum16 (antibody, human IgG4 S228P, kappa, V domains shown, humanized IgG4(S228P)/kappa, transient CHO supernatant) VH: EVQLVQSGAEVKKPGESLRISCKGSGFTLTNYGMNWVRQATGQGLEWMGWINTDTGEPTYADDFKGRVTISADKSISTAYLQWSSLKASDTAMYYCARNPPYYYGTNNAEAMDYWGQGTTVTVSS VL: EIVLTQSPDFQSVTPKEKVTITCSSSQDISNYLNWYQQKPGQAPRLLIYYTSTLHLGVPSRFSGSGSGTDFTLTISSLQPEDFATYYCQQYYNLPWTFGQGTKVEIKR"
